# Measured values reported in patent publication US8748182B2, “Mutant proteins and methods for producing them” (Heptares Therapeutics Limited, priority 2007, dated 2014).
# Numbering of substitutions follows the chain as printed. Numbers in names are those of the source.
# B1: E219A: A2aR point mutant (protein, UniProt P29274 1-412, looked up, variant E219A)
# Adenosine receptor A2a: MPIMGSSVYITVELAIAVLAILGNVLVCWAVWLNSNLQNVTNYFVVSLAAADIAVGVLAIPFAITISTGFCAACHGCLFIACFVLVLTQSSIFSLLAIAIDRYIAIRIPLRYNGLVTGTRAKGIIAICWVLSFAIGLTPMLGWNNCGQPKEGKNHSQGCGEGQVACLFEDVVPMNYMVYFNFFACVLVPLLLMLGVYLRIFLAARRQLKQMESQPLPGARARSTLQKEVHAAKSLAIIVGLFALCWLPLHIINCFTFFCPDCSHAPLWLMYLAIVLSHTNSVVNPFIYAYRIREFRQTFRKIIRSHVLRQQEPFKAAGTSARVLAAHGSDGEQVSLRLNGHPPGVWANGSAPHPERRPNGYALGLVSGGSAQESQGNTGLPDVELLSHELKGVCPEPPGLDDPLAQDGAGVS
# B2: Q311A: A2aR point mutant (protein, UniProt P29274 1-412, looked up, variant Q311A)
# Adenosine receptor A2a: B1 Adenosine receptor A2a with A219E, Q311A
# B3: A54L: A2aR point mutant (protein, UniProt P29274 1-412, looked up, variant A54L)
# Adenosine receptor A2a: B1 Adenosine receptor A2a with A54L, A219E
# B4: S263A: A2aR point mutant (protein, UniProt P29274 1-412, looked up, variant S263A)
# Adenosine receptor A2a: B1 Adenosine receptor A2a with A219E, S263A
# B5: L272A: A2aR point mutant (protein, UniProt P29274 1-412, looked up, variant L272A)
# Adenosine receptor A2a: B1 Adenosine receptor A2a with A219E, L272A
# B6: P260A: A2aR point mutant (protein, UniProt P29274 1-412, looked up, variant P260A)
# Adenosine receptor A2a: B1 Adenosine receptor A2a with A219E, P260A
# B7: L241A: A2aR point mutant (protein, UniProt P29274 1-412, looked up, variant L241A)
# Adenosine receptor A2a: B1 Adenosine receptor A2a with A219E, L241A
# B8: T224A: A2aR point mutant (protein, UniProt P29274 1-412, looked up, variant T224A)
# Adenosine receptor A2a: B1 Adenosine receptor A2a with A219E, T224A
# B9: H230A: A2aR point mutant (protein, UniProt P29274 1-412, looked up, variant H230A)
# Adenosine receptor A2a: B1 Adenosine receptor A2a with A219E, H230A
# B10: G114A: A2aR point mutant (protein, UniProt P29274 1-412, looked up, variant G114A)
# Adenosine receptor A2a: B1 Adenosine receptor A2a with G114A, A219E
# B11: S223A: A2aR point mutant (protein, UniProt P29274 1-412, looked up, variant S223A)
# Adenosine receptor A2a: B1 Adenosine receptor A2a with A219E, S223A
# B12: K227A: A2aR point mutant (protein, UniProt P29274 1-412, looked up, variant K227A)
# Adenosine receptor A2a: B1 Adenosine receptor A2a with A219E, K227A
# B13: N284A: A2aR point mutant (protein, UniProt P29274 1-412, looked up, variant N284A)
# Adenosine receptor A2a: B1 Adenosine receptor A2a with A219E, N284A
# B14: Q226A: A2aR point mutant (protein, UniProt P29274 1-412, looked up, variant Q226A)
# Adenosine receptor A2a: B1 Adenosine receptor A2a with A219E, Q226A
# B15: P313A: A2aR point mutant (protein, UniProt P29274 1-412, looked up, variant P313A)
# Adenosine receptor A2a: B1 Adenosine receptor A2a with A219E, P313A
# B16: K315A: A2aR point mutant (protein, UniProt P29274 1-412, looked up, variant K315A)
# Adenosine receptor A2a: B1 Adenosine receptor A2a with A219E, K315A
# B17: L267A: A2aR point mutant (protein, UniProt P29274 1-412, looked up, variant L267A)
# Adenosine receptor A2a: B1 Adenosine receptor A2a with A219E, L267A
# B18: R220A: A2aR point mutant (protein, UniProt P29274 1-412, looked up, variant R220A)
# Adenosine receptor A2a: B1 Adenosine receptor A2a with A219E, R220A
# B19: F380A: NTR point mutant (protein, UniProt P20789 1-424, looked up, variant F380A)
# Neurotensin receptor type 1: MHLNSSVPQGTPGEPDAQPFSGPQSEMEATFLALSLSNGSGNTSESDTAGPNSDLDVNTDIYSKVLVTAIYLALFVVGTVGNSVTAFTLARKKSLQSLQSTVHYHLGSLALSDLLILLLAMPVELYNFIWVHHPWAFGDAGCRGYYFLRDACTYATALNVASLSVERYLAICHPFKAKTLMSRSRTKKFISAIWLASALLAIPMLFTMGLQNRSGDGTHPGGLVCTPIVDTATVKVVIQVNTFMSFLFPMLVISILNTVIANKLTVMVHQAAEQGRVCTVGTHNGLEHSTFNMTIEPGRVQALRHGVLVLRAVVIAFVVCWLPYHVRRLMFCYISDEQWTTFLFDFYHYFYMLTNALFYVSSAINPILYNLVSANFRQVALSTLACLCPGWRHRRKKRPTFSRKPNSMSSNHAFSTSATRETLY
# B20: G215A: NTR point mutant (protein, UniProt P20789 1-424, looked up, variant G215A)
# Neurotensin receptor type 1: B19 Neurotensin receptor type 1 with G215A, A380F
# B21: V165A: NTR point mutant (protein, UniProt P20789 1-424, looked up, variant V165A)
# Neurotensin receptor type 1: B19 Neurotensin receptor type 1 with V165A, A380F
# B22: V229A: NTR point mutant (protein, UniProt P20789 1-424, looked up, variant V229A)
# Neurotensin receptor type 1: B19 Neurotensin receptor type 1 with V229A, A380F
# B23: G390A: NTR point mutant (protein, UniProt P20789 1-424, looked up, variant G390A)
# Neurotensin receptor type 1: B19 Neurotensin receptor type 1 with A380F, G390A
# B24: E166A: NTR point mutant (protein, UniProt P20789 1-424, looked up, variant E166A)
# Neurotensin receptor type 1: B19 Neurotensin receptor type 1 with E166A, A380F
# B25: A73L: NTR point mutant (protein, UniProt P20789 1-424, looked up, variant A73L)
# Neurotensin receptor type 1: B19 Neurotensin receptor type 1 with A73L, A380F
# B26: R395A: NTR point mutant (protein, UniProt P20789 1-424, looked up, variant R395A)
# Neurotensin receptor type 1: B19 Neurotensin receptor type 1 with A380F, R395A
# B27: P389A: NTR point mutant (protein, UniProt P20789 1-424, looked up, variant P389A)
# Neurotensin receptor type 1: B19 Neurotensin receptor type 1 with A380F, P389A
# B28: Nag7m: NTR with F358A+A86L+I260A+F342A (protein)
# chain: TSESDTAGPNSDLDVNTDIYSKVLVTAIYLALFVVGTVGNSVTLFTLARKKSLQSLQSTVHYHLGSLALSDLLILLLAMPVELYNFIWVHHPWAFGDAGCRGYYFLRDACTYATALNVASLSVERYLAICHPFKAKTLMSRSRTKKFISAIWLASALLAIPMLFTMGLQNRSGDGTHPGGLVCTPIVDTATVKVVIQVNTFMSFLFPMLVISILNTVAANKLTVMVHQAAEQGRVCTVGTHNGLEHSTFNMTIEPGRVQALRHGVLVLRAVVIAFVVCWLPYHVRRLMFCYISDEQWTTALFDFYHYFYMLTNALAYVSSAINPILYNLVSANFRQVFLSTLACLCPGWRHRRKKRPTFSRKPNSMSSNHAFSTSATRETLY
# B29: Nag7n: NTR with F358A+H103A+I260A+F342A (protein)
# chain: B28 chain with L44A, H61A
# B30: Wildtype NTR: wild-type rat neurotensin receptor (protein)
# chain: B28 chain with L44A, A218I, A300F, A316F
# Experiment: Thermostability of solubilised adenosine A2a receptor and mutants (radioligand binding after or during heating)
# Format: physicochemical
# Settings: Ligand(−) format, binding after the heating step
# Source text: FIG. 12 Flow chart showing the two different assay formats of ligand (+) and ligand (−) used to determine receptor thermostablity.
# • 1. 315 site-directed mutants made between residues 2-316 of A2aR. • 2. All of these mutants have been assayed for thermostability using an assay measuring agonist and antagonist binding after the heating step (Ligand(−) format as described in FIG. 12). • a. […] Mutations have been combined to generate mutants in a putative antagonist conformation. Wildtype A2aR has a Tm of 31° C. with ZM241385 bound. • a. Rant17 A54L+K122A+L235A Tm 48° C. (ZM241385 bound) • b. Rant19 A54L,T88A,V239A+A204L Tm 47° C. (ZM241385 bound) • c. Rant21 A54L,T88A,V239A+K122A Tm 49° C. (ZM241385 bound) • 4. Mutations from the agonist screen have been combined, but have led to only a very low level of improvement in Tm of +2° C.
Molecule,thermostability measured with 3H-NECA (agonist),thermostability assayed with 3H-ZM241385 (antagonist)
B1,improved thermostability,
B2,improved thermostability,
B3,,improved thermostability
B4,improved thermostability,
B5,improved thermostability,
B6,improved thermostability,
B7,improved thermostability,
B8,improved thermostability,
B9,improved thermostability,
B10,improved thermostability,improved thermostability
B11,improved thermostability,
B12,improved thermostability,
B13,improved thermostability,
B14,improved thermostability,
B15,improved thermostability,
B16,improved thermostability,
B17,improved thermostability,
B18,improved thermostability,

# Experiment: Thermostability of neurotensin receptor (NTR) mutants (3H-neurotensin binding)
# Format: physicochemical
# Settings: Ligand(+) format
row,Molecule,"thermostability, heated in the presence of 3H-neurotensin"
1,B19,improved thermostability
2,B20,improved thermostability
3,B21,improved thermostability
4,B22,improved thermostability
5,B23,improved thermostability
6,B24,improved thermostability
7,B25,improved thermostability
8,B26,improved thermostability
9,B27,improved thermostability

# Same assay, conditions: neurotensin bound
row,Molecule,Tm (neurotensin bound) [°C]
1,B28,51
2,B29,51
3,B30,35
